The record followed here is paper PMC6250052 (Neurobiology of disease, 2018).

B1: purified hCypD protein (human Cyclophilin D) (enzyme)
chain: not shown
B2: glutathione S-transferase (GST)-tagged OSCP (human oligomycin sensitivity conferring protein) (natural protein, UniProt P48047 24-213, looked up)
chain: FAKLVRPPVQVYGIEGRYATALYSAASKQNKLEQVEKELLRVAQILKEPKVAASVLNPYVKRSIKVKSLNDITAKERFSPLTTNLINLLAENGRLSNTQGVVSAFSTMMSVHRGEVPCTVTSASPLEEATLSELKTVLKSFLSQGQVLKLEAKTDPSILGGMIVRIGEKYVDMSVKTKIQKLGRAMREIV

Assay in all cases: pull-down
Experiment [1] concerns the target B2.
The target of experiment [2] is B2. This is another data set of the same source.
Experiment [3] has as its target Aβ peptide (ApexBio).
Experiment [4] addresses Aβ peptide (ApexBio). This is another data set of the same source.

Like-named read-outs stand apart in the source and are kept apart here.

With B1, the Kd – broadly, the free concentration of one partner at which half of the binding sites on the other are occupied at equilibrium, for simple one-to-one binding – in experiment [1] was found to be 100 ± 15 nM; in experiment [2], 60 ± 1 nM.

B2: the Kd was 88 ± 43 nM in experiment [3] and 510 ± 71 nM in experiment [4].
